Molecular target: HLA-A*02:01 (Homo sapiens, UniProt P04439, D140Y/D185E/D98H/E176V/E277Q/G131W/G231S/I119V/I121R/I166T/I218V/L300P/L318F/N151K/N90K/P208A/P217A/Q86G/Q94H/R138H/R169H/T345S)
Test: MHC binding assay (UV-ligand exchange, β2m ELISA)
Details: MHC class I binding score; binding to HLA-A*02:01 ranged by peptide exchange yield (UV-ligand exchange, β2m ELISA)
Description: Candidate peptides for T cell based therapies according to the present invention were further tested for their MHC binding capacity (affinity). The individual peptide-MHC complexes were produced by UV-ligand exchange, where a UV-sensitive peptide is cleaved upon UV-irradiation, and exchanged with the peptide of interest as analyzed. Only peptide candidates that can effectively bind and stabilize the peptide-receptive MHC molecules prevent dissociation of the MHC complexes. To determine the yield of the exchange reaction, an ELISA was performed based on the detection of the light chain (β2m) of stabilized MHC complexes. The assay was performed as generally described in Rodenko et al. (Rodenko et al., 2006).
96 well MAXISorp plates (NUNC) were coated over night with 2 ug/ml streptavidin in PBS at room temperature, washed 4× and blocked for 1 h at 37° C. in 2% BSA containing blocking buffer. Refolded HLA-A*02:01/MLA-001 monomers served as standards, covering the range of 15-500 ng/ml. Peptide-MHC monomers of the UV-exchange reaction were diluted 100 fold in blocking buffer. Samples were incubated for 1 h at 37° C., washed four times, incubated with 2 ug/ml HRP conjugated anti-β2m for 1 h at 37° C., washed again and detected with TMB solution that is stopped with […]. Absorption was measured at 450 nm. Candidate peptides that show a high exchange yield (preferably higher than 50%, most preferred higher than 75%) are generally preferred for a generation and production of antibodies or fragments thereof, and/or T cell receptors or fragments thereof, as they show sufficient avidity to the MHC molecules and prevent dissociation of the MHC complexes.

Substance | Peptide exchange
1 (FLDVKELML; listed as Homo sapiens) [compound 1] | ++++ (>75% = ++++)
2 (VLLGENVEL; listed as Homo sapiens) [compound 2] | +++ (>50 = +++)
5 (ILDEGHILQL; listed as Homo sapiens) [compound 5] | ++++ (>75% = ++++)
6 (SIPDTIASV; listed as Homo sapiens) [compound 6] | +++ (>50 = +++)
7 (NLQEKVPEL; listed as Homo sapiens) [compound 7] | +++ (>50 = +++)
19 (VLAVLGAVVAV; listed as Homo sapiens) [compound 19] | +++ (>50 = +++)
22 (KLLELQELVL; listed as Homo sapiens) [compound 22] | ++++ (>75% = ++++)
23 (FLGDPPPGL; listed as Homo sapiens) [compound 23] | +++ (>50 = +++)
24 (SLVAILHLL; listed as Homo sapiens) [compound 24] | +++ (>50 = +++)
25 (FIDPEQIQV; listed as Homo sapiens) [compound 25] | +++ (>50 = +++)
26 (KIEDLIKYL; listed as Homo sapiens) [compound 26] | +++ (>50 = +++)
27 (TLWYVPLSL; listed as Homo sapiens) [compound 27] | ++++ (>75% = ++++)
28 (IVDNTTMQL; listed as Homo sapiens) [compound 28] | +++ (>50 = +++)
29 (ILDDVAMVL; listed as Homo sapiens) [compound 29] | +++ (>50 = +++)
30 (VLFPMDLAL; listed as Homo sapiens) [compound 30] | +++ (>50 = +++)
32 (GLDIITNKV; listed as Homo sapiens) [compound 32] | +++ (>50 = +++)
35 (ALFAAGANV; listed as Homo sapiens) [compound 35] | +++ (>50 = +++)

Substance | Peptide exchange
36 (SVNGFISTL; listed as Homo sapiens) [compound 36] | ++ (>20% = ++)
37 (TLKEYLESL; listed as Homo sapiens) [compound 37] | +++ (>50 = +++)
38 (KLGFGTGVNVYL; listed as Homo sapiens) [compound 38] | ++++ (>75% = ++++)
39 (ALPPPPASI; listed as Homo sapiens) [compound 39] | +++ (>50 = +++)
40 (LLSNTVSTL; listed as Homo sapiens) [compound 40] | +++ (>50 = +++)
41 (LLDDPTNAHFI; listed as Homo sapiens) [compound 41] | +++ (>50 = +++)
42 (VLKADVVLL; listed as Homo sapiens) [compound 42] | ++ (>20% = ++)
43 (LLPDPLYSL; listed as Homo sapiens) [compound 43] | ++ (>20% = ++)
44 (FLYTYIAKV; listed as Homo sapiens) [compound 44] | +++ (>50 = +++)
45 (FVYGEPREL; listed as Homo sapiens) [compound 45] | +++ (>50 = +++)
46 (VMSSTLYTV; listed as Homo sapiens) [compound 46] | ++++ (>75% = ++++)
47 (ALDSDPVGL; listed as Homo sapiens) [compound 47] | +++ (>50 = +++)
48 (HLIGWTAFL; listed as Homo sapiens) [compound 48] | ++++ (>75% = ++++)
49 (ALLSQDFEL; listed as Homo sapiens) [compound 49] | ++++ (>75% = ++++)
50 (HLDQIFQNL; listed as Homo sapiens) [compound 50] | ++ (>20% = ++)
51 (LIDKIIEYL; listed as Homo sapiens) [compound 51] | ++ (>20% = ++)
52 (NLDYAILKL; listed as Homo sapiens) [compound 52] | + (>10% = +)

Second part, the substance after the results:

Peptide exchange | Substance
+++ (>50 = +++) | 53 (ILDEEKFNV; listed as Homo sapiens) [compound 53]
+++ (>50 = +++) | 54 (LLDSGAFHL; listed as Homo sapiens) [compound 54]
+ (>10% = +) | 55 (NLDKLYHGL; listed as Homo sapiens) [compound 55]
+++ (>50 = +++) | 56 (ILDELVKSL; listed as Homo sapiens) [compound 56]
+++ (>50 = +++) | 57 (GILSFLPVL; listed as Homo sapiens) [compound 57]
++++ (>75% = ++++) | 58 (ILGDWSIQV; listed as Homo sapiens) [compound 58]
++ (>20% = ++) | 59 (IIDDVMKEL; listed as Homo sapiens) [compound 59]
++++ (>75% = ++++) | 60 (ILPEAQDYFL; listed as Homo sapiens) [compound 60]
++++ (>75% = ++++) | 61 (KLSVHVTAL; listed as Homo sapiens) [compound 61]
++++ (>75% = ++++) | 62 (LLDTTQKYL; listed as Homo sapiens) [compound 62]
+ (>10% = +) | 63 (SIDDSDPIV; listed as Homo sapiens) [compound 63]
++ (>20% = ++) | 64 (SLGPIMLTKI; listed as Homo sapiens) [compound 64]
++ (>20% = ++) | 65 (TTLGGFAKV; listed as Homo sapiens) [compound 65]
++++ (>75% = ++++) | 66 (VMFEYGMRL; listed as Homo sapiens) [compound 66]
+ (>10% = +) | 67 (YVDSEGIVRM; listed as Homo sapiens) [compound 67]
++++ (>75% = ++++) | 68 (FLAEAARSL; listed as Homo sapiens) [compound 68]
+++ (>50 = +++) | 69 (IIDDKPIGL; listed as Homo sapiens) [compound 69]
+++ (>50 = +++) | 70 (LIDEAAQML; listed as Homo sapiens) [compound 70]
++++ (>75% = ++++) | 71 (SLDEVAVSL; listed as Homo sapiens) [compound 71]
++++ (>75% = ++++) | 72 (TLLEVDAIVNA; listed as Homo sapiens) [compound 72]

Peptide exchange | Substance
+ (>10% = +) | 73 (ELDKIYETL; listed as Homo sapiens) [compound 73]
+ (>10% = +) | 74 (GTIPLIESL; listed as Homo sapiens) [compound 74]
++++ (>75% = ++++) | 75 (FMYAGQLTL; listed as Homo sapiens) [compound 75]
+++ (>50 = +++) | 76 (QIDSIHLLL; listed as Homo sapiens) [compound 76]
++ (>20% = ++) | 77 (SIDDVVKKL; listed as Homo sapiens) [compound 77]
++++ (>75% = ++++) | 78 (ALKDLVNLI; listed as Homo sapiens) [compound 78]
+++ (>50 = +++) | 79 (AVDNILLKL; listed as Homo sapiens) [compound 79]
+++ (>50 = +++) | 80 (FADELSHLL; listed as Homo sapiens) [compound 80]
+++ (>50 = +++) | 81 (FLDDGNQML; listed as Homo sapiens) [compound 81]
+++ (>50 = +++) | 82 (GIDDLHISL; listed as Homo sapiens) [compound 82]
+++ (>50 = +++) | 83 (GLDKVITVL; listed as Homo sapiens) [compound 83]
++++ (>75% = ++++) | 84 (GLDTILQNL; listed as Homo sapiens) [compound 84]
++++ (>75% = ++++) | 85 (GLLDVMYQV; listed as Homo sapiens) [compound 85]
+++ (>50 = +++) | 86 (HTLPHEIVVNL; listed as Homo sapiens) [compound 86]
++ (>20% = ++) | 87 (IIDPPLHGQLL; listed as Homo sapiens) [compound 87]
+++ (>50 = +++) | 88 (ILDGIIREL; listed as Homo sapiens) [compound 88]
+++ (>50 = +++) | 89 (ILDNSPAFL; listed as Homo sapiens) [compound 89]
+++ (>50 = +++) | 90 (ILDYIHNGL; listed as Homo sapiens) [compound 90]
++++ (>75% = ++++) | 91 (ILLDRLFSV; listed as Homo sapiens) [compound 91]
++ (>20% = ++) | 92 (KLPGFPTQDDEV; listed as Homo sapiens) [compound 92]
